Assay results as given in patent US20220305003A1, “METHODS OF TREATING CANCER WITH AN INHIBITOR OF ZNF827” (CHILDREN'S MEDICAL RESEARCH INSTITUTE, priority 2019, published 2022).

T1: ZNF827 ZnF4-9 deleted (Homo sapiens)
T1 chain: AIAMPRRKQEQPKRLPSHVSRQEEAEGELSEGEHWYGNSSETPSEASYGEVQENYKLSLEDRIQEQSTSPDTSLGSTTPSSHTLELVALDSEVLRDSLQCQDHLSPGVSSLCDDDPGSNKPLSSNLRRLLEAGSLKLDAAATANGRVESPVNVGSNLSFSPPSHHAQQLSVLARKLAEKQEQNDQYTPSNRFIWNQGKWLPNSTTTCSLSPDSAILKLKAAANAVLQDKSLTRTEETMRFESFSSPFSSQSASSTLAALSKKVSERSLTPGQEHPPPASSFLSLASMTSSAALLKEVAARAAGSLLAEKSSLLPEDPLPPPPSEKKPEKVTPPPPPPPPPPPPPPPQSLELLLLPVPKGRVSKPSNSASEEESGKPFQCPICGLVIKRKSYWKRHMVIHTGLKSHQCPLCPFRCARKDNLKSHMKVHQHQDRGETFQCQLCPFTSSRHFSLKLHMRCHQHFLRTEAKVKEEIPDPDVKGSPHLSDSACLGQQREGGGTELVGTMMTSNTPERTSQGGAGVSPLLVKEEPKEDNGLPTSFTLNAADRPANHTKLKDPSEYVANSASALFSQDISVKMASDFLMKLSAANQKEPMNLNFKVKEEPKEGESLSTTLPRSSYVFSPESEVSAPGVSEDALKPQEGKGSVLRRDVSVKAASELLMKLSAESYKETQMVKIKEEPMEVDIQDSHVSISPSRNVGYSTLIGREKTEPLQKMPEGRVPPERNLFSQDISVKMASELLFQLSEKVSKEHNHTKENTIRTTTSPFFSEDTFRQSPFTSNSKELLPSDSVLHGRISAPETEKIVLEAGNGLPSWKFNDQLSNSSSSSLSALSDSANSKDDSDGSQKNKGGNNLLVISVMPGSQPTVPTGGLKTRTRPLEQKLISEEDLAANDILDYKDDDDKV

T2: ZNF827 full length (Homo sapiens, UniProt Q17R98 SEQ:1-1081)
T2 sequence: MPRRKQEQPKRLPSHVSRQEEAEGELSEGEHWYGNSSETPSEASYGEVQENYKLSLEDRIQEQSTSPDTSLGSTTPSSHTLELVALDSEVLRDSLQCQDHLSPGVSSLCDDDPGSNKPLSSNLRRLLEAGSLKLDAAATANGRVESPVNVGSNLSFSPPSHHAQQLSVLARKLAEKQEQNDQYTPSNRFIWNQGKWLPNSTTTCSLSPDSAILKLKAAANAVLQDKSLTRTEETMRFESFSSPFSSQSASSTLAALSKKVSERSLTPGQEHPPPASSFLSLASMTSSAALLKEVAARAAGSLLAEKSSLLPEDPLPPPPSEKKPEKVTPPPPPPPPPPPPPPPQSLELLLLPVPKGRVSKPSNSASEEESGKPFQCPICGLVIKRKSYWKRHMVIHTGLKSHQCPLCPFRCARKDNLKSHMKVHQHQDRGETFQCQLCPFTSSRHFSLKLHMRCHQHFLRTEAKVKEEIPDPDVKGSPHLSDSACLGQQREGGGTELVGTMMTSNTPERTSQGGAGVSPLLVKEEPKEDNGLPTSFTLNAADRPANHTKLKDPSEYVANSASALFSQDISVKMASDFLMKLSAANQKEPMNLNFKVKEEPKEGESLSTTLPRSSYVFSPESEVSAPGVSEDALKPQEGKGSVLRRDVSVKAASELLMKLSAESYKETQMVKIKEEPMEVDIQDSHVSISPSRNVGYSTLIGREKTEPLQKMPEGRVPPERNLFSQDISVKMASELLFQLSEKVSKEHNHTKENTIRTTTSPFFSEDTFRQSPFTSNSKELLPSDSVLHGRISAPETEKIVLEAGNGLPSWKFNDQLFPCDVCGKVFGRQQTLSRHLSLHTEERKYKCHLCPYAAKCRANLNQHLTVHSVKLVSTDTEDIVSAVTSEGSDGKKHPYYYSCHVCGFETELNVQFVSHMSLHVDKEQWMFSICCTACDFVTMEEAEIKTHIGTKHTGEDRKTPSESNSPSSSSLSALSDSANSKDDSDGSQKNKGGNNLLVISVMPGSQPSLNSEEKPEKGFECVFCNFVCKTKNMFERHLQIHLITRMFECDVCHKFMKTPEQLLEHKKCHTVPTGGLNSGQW


Columns and labels:
[1] = EdU flow cytometry; type: cell-based; conditions: EdU pulse 1 hour
Method: Using EdU flow cytometry (5-ethynyl-2′-deoxyuridine) is a thymidine analogue which is incorporated into DNA during active DNA synthesis), the effects of ZNF827 depletion on cell cycle progression, especially on DNA replication, were examined.
EdU flow cytometry was performed with the Click-iT EdU flow cytometry kit (ThermoFisher Scientific) according to manufacturer's instructions. Briefly cells were pulsed with EdU for 1 hour at 37° C. and harvested by trypsinisation and centrifugation at 1000 rpm for 5 minutes. Cells were then fixed and labelled with Alex Fluor 647 with the flow cytometry kit following the manufacturer's protocol. For DNA content labelling, the fixed cells were treated with 0.5 mg of RNase (Sigma) and 25 μg of propidium iodide at 37° C. for 30 minutes. Labelled cells were analysed using the BD FACSCanto Flow Cytometer (BD Biosciences) containing lasers to excite Alexa Fluor 647 labelled EdU and propidium iodide. Between 10 000-15 000 events were collected at an approximate flow rate of 200 events/second. Data analysis was conducted using FlowJo 7.

[2] = molecular target: T1, ZNF827 ZnF4-9 deleted; assay: EMSA; 0.8 mM ZnCl2, 100 mM KCl, poly(dI:dC), on ice; conditions: tags: HaloTag (pHTN), expressed in HEK 293T, tag removed by HaloTEV cleavage; label: 32P (gamma)
Method: (§1) Purified proteins were quantified using a BCA assay using the Pierce™ BCA Protein Assay Kit according to the manufacturer's instructions. Equal amounts of purified proteins were incubated in binding buffer (20 mM HEPES-KOH, pH7.9, 100 mM KCl, 0.8 mM ZnCl₂, 0.2 mM EDTA, 5% glycerol, 0.5 mM DTT and 0.5 mM PMSF) with 6.25 μg/mL poly (dI:dC) and 50 ng/μL BSA on ice for 20 minutes. ˜0.12 nM (˜2.5 fmol) γ-³²P labelled DNA oligonucleotide (see Table 3) probes were added to samples and incubated on ice for another 30 minutes. Binding reactions were loaded onto an 8% native acrylamide/bisacrylamide (19:1, Biorad) gel pre-run at 100V in 0.5× TB buffer (89 mM Tris, 89 mM boric acid) for 20 minutes. Gels were electrophoresed at 150 V for 150 minutes at 4° C., dried at 65° C. for 45 minutes, and then exposed to a Phosphor screen overnight. Gel images were obtained by scanning the screens with a Typhoon FLA9500 Imager (GE Life Sciences).

[3] = molecular target: T2, ZNF827 full length; assay: as above; conditions: tags: HaloTag (pHTN), expressed in HEK 293T, tag removed by HaloTEV cleavage; label: 32P (gamma)
Method: as §1

Row | Molecule | cell cycle distribution (EdU) [1] | binding result [2] | binding result [3]
1 | siZNF827: Stealth RNAi siRNA ZNF827HSS135819 duplex oligoribonucleotides (Invitrogen), SEQ ID NO: 12 and 13 (chain 1 GGGCAGUCUUCUGGCUGAGAAAUCA; chain 2 UGAUUUCUCAGCCAGAAGACUGCCC; listed as RNA, further chemistry not given here) | conspicuous G1 arrest and a significant reduction of S phase cells | – | –
2 | TTAGGGTTAGGGTTAGGG (ssDNA) [ss telomeric G rich oligo] | – | binds | binds
